Measured values reported in publication PMC3229523, “Identification of Lactoferricin B Intracellular Targets Using an Escherichia coli Proteome Chip” (PLoS ONE, 2011).
Ends that are not written are not given here. * marks the point of attachment. Biotin = O=C1N[C@H]2[C@H](CS[C@H]2CCCCC(=O)*)N1

Experiments:
Assay in all cases: peptide or protein array; E. coli proteome chip: purified His-tagged proteins printed in duplicate on Fullmoon slides, blocked with 1% BSA; 10 nM N-terminal biotinylated LfcinB with 1% BSA, room temperature, 1 h; detected with DyLight 649-labeled streptavidin, ratio to DyLight 549-labeled anti-His antibody; ProCAT normalisation, local cut-off; triplicate chips
Conditions in all cases: both partners purified
[1] = target: T1, YefE (E. coli K-12, UniProt P37747 1-367)
T1 construct: YefE, E. coli K-12
T1 sequence (looked up): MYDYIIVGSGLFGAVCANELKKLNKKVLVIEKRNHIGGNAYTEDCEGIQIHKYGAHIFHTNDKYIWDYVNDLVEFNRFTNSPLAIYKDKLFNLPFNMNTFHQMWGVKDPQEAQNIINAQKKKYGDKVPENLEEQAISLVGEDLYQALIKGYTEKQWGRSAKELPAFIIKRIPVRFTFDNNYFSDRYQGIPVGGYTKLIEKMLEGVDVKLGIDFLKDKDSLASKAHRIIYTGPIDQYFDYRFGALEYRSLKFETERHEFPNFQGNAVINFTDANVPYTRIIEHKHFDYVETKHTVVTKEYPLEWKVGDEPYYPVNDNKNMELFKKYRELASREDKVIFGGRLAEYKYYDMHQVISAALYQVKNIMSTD

[2] = target: T2, YehS (E. coli K-12, UniProt P33355 1-156)
T2 construct: YehS, E. coli K-12
T2 sequence (looked up): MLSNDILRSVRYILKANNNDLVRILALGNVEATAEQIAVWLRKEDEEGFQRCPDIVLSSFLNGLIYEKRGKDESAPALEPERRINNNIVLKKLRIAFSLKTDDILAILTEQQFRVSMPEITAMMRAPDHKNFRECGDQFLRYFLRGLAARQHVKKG

[3] = target: T3, YggF (E. coli K-12, UniProt P21437 1-321)
T3 construct: YggF, E. coli K-12
T3 sequence (looked up): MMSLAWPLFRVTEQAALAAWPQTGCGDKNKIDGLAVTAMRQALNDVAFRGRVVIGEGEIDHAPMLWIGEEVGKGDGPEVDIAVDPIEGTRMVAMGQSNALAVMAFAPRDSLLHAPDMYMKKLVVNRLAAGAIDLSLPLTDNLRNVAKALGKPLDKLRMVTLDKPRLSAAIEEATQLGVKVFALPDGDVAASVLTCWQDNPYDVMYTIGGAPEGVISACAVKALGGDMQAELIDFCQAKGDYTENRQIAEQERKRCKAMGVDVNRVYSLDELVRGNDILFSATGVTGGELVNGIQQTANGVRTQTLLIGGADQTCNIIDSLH

[4] = target: T4, RfaZ (E. coli K-12, UniProt P27241 1-283)
T4 construct: RfaZ, E. coli K-12
T4 sequence (looked up): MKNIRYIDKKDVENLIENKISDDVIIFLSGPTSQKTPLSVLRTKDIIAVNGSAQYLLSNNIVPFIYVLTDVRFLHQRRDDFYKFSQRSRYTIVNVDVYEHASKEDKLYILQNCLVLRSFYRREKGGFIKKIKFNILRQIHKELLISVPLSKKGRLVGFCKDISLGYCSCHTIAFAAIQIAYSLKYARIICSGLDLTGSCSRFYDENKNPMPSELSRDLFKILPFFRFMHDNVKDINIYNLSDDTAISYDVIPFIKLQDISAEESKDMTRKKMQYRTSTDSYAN

[5] = target: T5, AceK (E. coli K-12, UniProt P11071 1-578)
T5 construct: AceK, E. coli K-12
T5 sequence (looked up): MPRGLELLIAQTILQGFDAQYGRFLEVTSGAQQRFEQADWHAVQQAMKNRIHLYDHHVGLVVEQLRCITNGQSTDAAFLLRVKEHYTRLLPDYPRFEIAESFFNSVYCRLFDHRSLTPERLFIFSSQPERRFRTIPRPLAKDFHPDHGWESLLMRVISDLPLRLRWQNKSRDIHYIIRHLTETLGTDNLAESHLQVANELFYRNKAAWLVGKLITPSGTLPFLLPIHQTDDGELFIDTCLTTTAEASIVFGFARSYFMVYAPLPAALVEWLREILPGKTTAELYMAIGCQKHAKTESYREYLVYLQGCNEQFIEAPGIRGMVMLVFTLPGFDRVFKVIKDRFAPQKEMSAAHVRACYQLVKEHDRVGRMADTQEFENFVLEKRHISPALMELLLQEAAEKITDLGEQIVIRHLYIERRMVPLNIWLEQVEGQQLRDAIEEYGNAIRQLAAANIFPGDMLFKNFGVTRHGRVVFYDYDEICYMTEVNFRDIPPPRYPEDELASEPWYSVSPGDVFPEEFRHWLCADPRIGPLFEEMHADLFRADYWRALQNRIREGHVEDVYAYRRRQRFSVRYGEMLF

Measured: binding result

B1: N-terminal biotinylated Lactoferricin B (peptide, UniProt P24627 36-60, looked up)
peptide: Biotin-FKCRRWQWRMKKLGAPSITCVRRAF
modifications: ends and bridges not checked
notes: lactoferricin B (LfcinB), cationic antimicrobial peptide of 25 amino acids; also called biotinylated LfcinB; biotin-labeled LfcinB; source: bought: Kelowna Inc
binds: [1] | [2] | [3] | [4] | [5]
